For the test, the target named is 重组人OPN-R (OPN-N端蛋白, 重组骨桥蛋白N端活性结构域 osteopontin I17-R167) (human). The test is described as follows: ForteBio BLI, biotinylated OPN-R on streptavidin sensor, antibody at 50-300 nmol/L, 1:1 model. On the technique in general: In BLI a coated tip is dipped into the sample, and binding shifts an interference pattern.
重组人OPN-R (OPN-N端蛋白, 重组骨桥蛋白N端活性结构域 osteopontin I17-R167) (human), sequence (chain, as listed by the source): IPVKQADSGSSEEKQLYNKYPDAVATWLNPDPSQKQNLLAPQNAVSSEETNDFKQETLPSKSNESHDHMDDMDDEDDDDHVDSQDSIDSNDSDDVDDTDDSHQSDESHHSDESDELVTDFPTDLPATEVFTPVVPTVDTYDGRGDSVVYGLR

B1: 抗OPN嵌合抗体(抗体72B) (antibody, V domains shown)
VH: EVMLVESGGGLLKPGGSLKLSCAASGFTFSSYAMSWVRQTPEKRLEWVATITSGGSYTNYSDSVKGRITISRDNAKNTLYLQMSSLRSEDTAMYYCAREGPAWFAYWGQGTLVTVSA
VL: DIVMTQTPLSLPVSLGDQASISCRSSQSIVHSNGNTYLEWYLQKPGQSPKLLIYKVSNRFSGVPDRFSGSGSGTDFTLKISRVEAEDLGVYYCFQGSHVPPTFGGGTKLEIKR
notes: Mouse/human IgG1 chimera made by overlap PCR and expressed in HEK293E; also called 72B抗体; OPN-Ab(72B)
For the molecule B1, the Kd (usually the equilibrium constant for the complex coming apart) is 4.55 nM.
